Data from paper PMC3258524, “Regulation of the human tyrosinase gene in retinal pigment epithelium cells: the significance of transcription factor orthodenticle homeobox 2 and its polymorphic binding site” (Molecular Vision, 2012).

Legend:
[1] = target: T1, full-length MITF-M (microphthalmia-associated transcription factor, isoform M) (UniProt O75030-9 1-419); test: cell-based or functional assay
T1 sequence (looked up): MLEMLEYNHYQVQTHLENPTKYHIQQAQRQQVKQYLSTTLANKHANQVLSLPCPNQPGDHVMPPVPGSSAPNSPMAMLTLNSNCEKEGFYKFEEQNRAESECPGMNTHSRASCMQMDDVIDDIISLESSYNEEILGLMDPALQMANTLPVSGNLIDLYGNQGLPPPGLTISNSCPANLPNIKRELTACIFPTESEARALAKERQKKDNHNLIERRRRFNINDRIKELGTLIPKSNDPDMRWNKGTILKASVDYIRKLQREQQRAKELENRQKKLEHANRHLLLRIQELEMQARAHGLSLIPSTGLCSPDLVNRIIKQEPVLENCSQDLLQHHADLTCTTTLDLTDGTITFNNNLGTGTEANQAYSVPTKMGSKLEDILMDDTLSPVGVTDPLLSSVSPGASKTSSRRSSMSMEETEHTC

[2] = target: T2, full-length MITF-A (microphthalmia-associated transcription factor, isoform A) (UniProt O75030-2 1-520); test: cell-based or functional assay
T2 sequence (looked up): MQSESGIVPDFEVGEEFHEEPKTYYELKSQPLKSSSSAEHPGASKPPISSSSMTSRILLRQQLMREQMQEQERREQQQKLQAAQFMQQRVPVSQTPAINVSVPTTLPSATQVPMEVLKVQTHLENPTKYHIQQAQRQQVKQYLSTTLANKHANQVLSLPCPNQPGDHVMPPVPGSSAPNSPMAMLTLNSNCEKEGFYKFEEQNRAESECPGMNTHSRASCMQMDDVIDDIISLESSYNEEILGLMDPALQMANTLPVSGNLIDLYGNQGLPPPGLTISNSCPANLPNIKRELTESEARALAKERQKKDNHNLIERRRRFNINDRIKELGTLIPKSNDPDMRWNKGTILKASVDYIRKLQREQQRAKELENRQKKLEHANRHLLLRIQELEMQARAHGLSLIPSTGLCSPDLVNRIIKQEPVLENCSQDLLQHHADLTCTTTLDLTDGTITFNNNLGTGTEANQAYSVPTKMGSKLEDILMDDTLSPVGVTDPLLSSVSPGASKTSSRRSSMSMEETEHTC

B1: full-length OTX2 (orthodenticle homeobox 2) (natural protein)
chain: not shown
B1 was tested, and the “luciferase reporter driven by the human TYR promoter construct -152 (MITF sites, no OTX2 sites) in ARPE-19 cells cotransfected with MITF-M and OTX2; synergism compared with that of MITF-A and OTX2” value [1] was ~1.7 fold (against MITF-A) and the “luciferase reporter driven by the human TYR promoter construct -152 (MITF sites, no OTX2 sites) in ARPE-19 cells cotransfected with MITF-A and OTX2; activation relative to the empty vector” value [2] was 20 fold.
